# According to paper PMC3373496, “An Evolutionarily Conserved Enhancer Regulates Bmp4 Expression in Developing Incisor and Limb Bud”:
# B1: MutMsxBSCONS3 (dsDNA)
# DNA 1: GACCCTATCCGGCCTCATTCCTGAA
# DNA 2: TTCAGGAATGAGGCCGGATAGGGTC
# B2: WTMsxBSCONS3 (dsDNA)
# DNA 1: GACCCTATGTAATTGCATTCCTGAA
# DNA 2: TTCAGGAATGCAATTACATAGGGTC
# B3: MutPitxBSCONS3 (dsDNA)
# DNA 1: AGTTCCCTACAACGCATTTACCGTG
# DNA 2: CACGGTAAATGCGTTGTAGGGAACT
# B4: WTPitxBSCONS3 (dsDNA)
# DNA 1: AGTTCCCTACATAATCCTTACCGTG
# DNA 2: CACGGTAAGGATTATGTAGGGAACT
# B5: Bicoid (dsDNA)
# DNA 1: TCATGCCTGTAATCCCAGCACTCAG
# DNA 2: CTGAGTGCTGGGATTACAGGCATGA
# Experiments:
# GST-Msx2 = GST-Msx2 (UniProt Q03358 1-267); assay: EMSA; 1X phosphate buffer, 10% glycerol, 0.3 mg/ul BSA, 0.1 ug/ul DNaseI-digested poly[dG-dC], 20 ul, on ice 10 min + 20 min with probe; 6% native PAGE, 1x TBE, 4 C; settings: protein: recombinant; tags: N-terminal GST (pGEX3X); label: 32P 5' end (PNK) when probe; blunt
# GST-Msx2, sequence (Q03358 whole entry): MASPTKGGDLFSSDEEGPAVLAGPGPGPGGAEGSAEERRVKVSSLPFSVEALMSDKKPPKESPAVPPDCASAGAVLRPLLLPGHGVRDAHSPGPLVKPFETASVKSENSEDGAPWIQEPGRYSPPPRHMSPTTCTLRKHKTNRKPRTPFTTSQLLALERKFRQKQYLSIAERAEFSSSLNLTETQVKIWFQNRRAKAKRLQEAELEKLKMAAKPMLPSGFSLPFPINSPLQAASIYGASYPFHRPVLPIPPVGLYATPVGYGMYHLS
# GST-Pitx1 = GST-Pitx1 (UniProt P70314 1-315); assay: EMSA; 1X phosphate buffer, 10% glycerol, 0.1 ug/ul DNaseI-digested poly[dG-dC], 20 ul, on ice 10 min + 20 min with probe; 6% native PAGE, 1x TBE, 4 C; settings: protein: recombinant; tags: N-terminal GST (pGEX3X); label: 32P 5' end (PNK) when probe; blunt
Binder,binding result (GST-Msx2),binding result (GST-Pitx1)
B1,no binding,–
B2,binds,–
B3,–,no binding
B4,–,binds
B5,–,binds
